Data reported in doi:10.1101/2020.09.30.319905.
Several values for one entry are separate records, joined by “and”; a condition that tells them apart may be missing. Identical values can stand only once.

Experiments:
[1] = target: Truncated ApoE3, residues 80-255 (central helical repeat segment) (human) (UniProt P02649); test: SAXS
[2] = target: Truncated ApoE3, residues 80-255 (central helical repeat segment) (human) (UniProt P02649); test: cross-linking

stoichiometry N [1]: 4 | stoichiometry N [2]: 2 and 3
Substance: Truncated ApoE3, residues 80-255 (central helical repeat segment) (from UniProt P02649 80-255) (domain or fragment)
